# Measurements: PMC10164722, “Crystal Structure of Mesaconyl-CoA Hydratase from Methylorubrum extorquens CM4” (Journal of Microbiology and Biotechnology, 2023)
# B1: mesaconyl-CoA hydratase from Methylorubrum extorquens CM4 (enzyme, UniProt C5B1K4 1-348, looked up)
# chain: MKTNPGRFFEDFRLGETIRHATPRTVTTGDVALYTALYGPRFAVQSSDAFAKAIGHPASPLDDLLTFHVVFGKTVPDVSLNALANLGYAEGGFHRPVYPGETLSTVSEVIGLKESSNRQTGVVYVRSTGSDASGQTVLSYCRWVLVRKRDPEAKIAEEHVPQLAKVVNPADLAHALPPLDPAAYDNALAGSPHRFADYAVGEKIDHVDGMTVEEAEHQIATRLFQNTAKVHFDAVATKETKFGKRLIYGGHVISLARALSFNGLANAFAIGGINAGRHVAPLFAGDTVYAWSEVLETAELPGRSDIGALRLRTVATKNQSCGAYPDKQGEGYDPSVILDLDYWAFIPR
# notes: Mesaconyl-CoA hydratase MeaC (locus Mchl_4075) of Methylorubrum extorquens CM4; subdomains printed as residues 1~147 (MeaC^N), 148~190 (MeaC^Br) and 191~348 (MeaC^C); Surmised: cloning into pET30a by NdeI/XhoI with a reverse primer that has no stop codon would put the vector's His6 tag (after Leu-Glu) at the C-terminus; also called MeMeaC; MeaC; source: E. coli BL21(DE3)-T1R, purified (Ni-NTA, …)
# Target: the molecule itself
# Experiment: crystal structure; MeMeaC with malic acid, 1.95 Å, space group P6_(3), one molecule in the asymmetric unit; trimer by crystallographic symmetry (PDBePISA also suggested a trimer)
protein,measurement,value
B1,stoichiometry N,3
